# Results published in the nanobody polyreactivity screen of Harvey et al. (2022).
# Assay: yeast display, Sf9 membrane polyspecificity reagent, FACS + sequencing; frameworks hold sequencing errors
# In short: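 Galactose induction of a Saccharomyces cerevisiae BJ5465 synthetic nanobody display library ran 36–48 hours. The cells were then stained for 1 hour at 4 °C with 10% biotinylated, detergent-solubilized Sf9 membrane reagent, pulled down on streptavidin microbeads and FACS-sorted into low and high (top ~1%) gates on expression and reagent-binding fluorescence. Labels for polyreactivity follow the gate of origin.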
row,Sequence,polyreactivity (PSR sort gate)
1,QVQLVESGGGLVQAGGSLRLSCAASGSIFDYYGMGWYRQAPGKEGELVATISQGGDSSYYADSVKGRFTISRDNAKNTVYLQMNSLKPEDTAVYYCAALVPIYRWYKLYYWGQGTQVTLSS,low polyreactivity
2,QVQLVESGGGLVQAGGSLRLSCAASGSIFDYYGMGWYRQAPGKERELVARITKRGGSTYYADSVMGRFTISRDNAKNTVYFQMNSLKPEDTAVYYCAAVVAYLFSGRGYRYNYWGQGTQVTLSS,high polyreactivity
3,QVQLVESGGGLVQAGGSLRLSCAASGSIFDYYTMGWYRQAPGKERELVAVIDNSGGSTYYADSVKGRFTISRDNAKNTVYLQMNSLKPEDTAVYYCARRFYNYVSYSNGGATLYDYWGQGTQVTVSS,high polyreactivity
4,QVQLVESGGGLVQAGGSLRLSCAASGSIFEAYAMGWYRQAPGKERELVAAITTAGGSTYYADSVKGRFTISRDNAKNTVYLQMNSLKPEETAVYYCARDYGKYKGYYWGQGTQVTVSS,low polyreactivity
5,QVQLVESGGGLVQAGGSLRLSCAASGSIFEAYAMGWYRQAPGKEREVVAVISWRGGRTYYADSVKGRFTISRDNAKNTVYLQMNSLNPEDTAVYYCNKAYWWHQVGLPRNYEYWGQGTQVTVSS,low polyreactivity
6,QVQLVESGGGLVQAGGSLRLSCAASGSIFEDYAMGWYRQAPGKERELVAAIDWGDGDTYYADSVKGRFTISRDNAKNTVYLQMNSLKPEDTAVYYCAADLVGYSGYYFDEEYYWGQGTQVTVSS,high polyreactivity
7,QVQLVESGGGLVQAGGSLRLSCAASGSIFEDYTMGWYRQAPGKERELVAAIDWSDASTFYADSVKGRFTISRDNAKNTVYLQMSLKPEDTAVYYCNVAIIFYDDDYWGQGTLVTVSS,high polyreactivity
8,QVQLVESGGGLVQAGGSLRLSCAASGSIFEGNAMGWDRQAPGKERELVASISGDGSTNYADSVKGRFTISRDNAKITVYLQMNCLKPEDTAVYYCAASFRWYGTVRYPYEMYYWGQGTQVTVSS,low polyreactivity
9,QVQLVESGGGLVQAGGSLRLSCAASGSIFEGNAMGWYREAPGKERELVASISGDGSTNYADSVKGRFTISRDNAKNTVYLQMNSLKPEDTAVYYCNADTISEPGFHMDYWGQGTQVTVSS,low polyreactivity
10,QVQLVESGGGLVQAGGSLRLSCAASGSIFEGNGMGWNRQEPGNVRELVAAITFRSGSTYYADSVKGRFTISRDNAKNSVYLQMNSLKPEDTAVYYCAADEYYQVSAYDYWGQGTQVTVSS,low polyreactivity
11,QVQLVESGGGLVQAGGSLRLSCAASGSIFEGNGMGWYRQAPGQERELVAAITFRSGSTYYADSVKGRFTISRDNAKNTVYLQMNSLKPEDTAVYYCAADEYYQGYAYDYWGQGTPVTVSS,low polyreactivity
12,QVQLVESGGGLVQAGGSLRLSCAASGSIFEGYVMGWYRQAPGKERELVATISFSGGSTYYADSVKGRFTISRDNAKNTVYLQMNSLKPEDTAVYYSAAAGVYYGVRGTTYAYDYWGQGTQVTVSS,low polyreactivity
13,QVQLVESGGGLVQAGGSLRLSCAASGSIFEHYAMGWYRQAPGKERELVATISSASRTNYADSVKGRFTISRDNAKNTVYLQMNSLKPEDTAVYYCAARFYYVWYGPYYYWGQGTQVTVSS,high polyreactivity
14,QVQLVESGGGLVQAGGSLRLSCAASGSIFEQYAMGGSRPAPGKERELVAAISKRGTSTYYADSVKGRFTISRDTPKNTVYLNMNSLKPEDTAVYYCAATNRWYYRAAADVYAFGYWGQGTQVTVSS,high polyreactivity
15,QVQLVESGGGLVQAGGSLRLSCAASGSIFERNAMGWYRQAPGKERELVAAISDDDGSTYYADSVKGRFTISRDNAKNTVYLQMNSLKPEDTAVYYCNAYSHFGSFYPFDYWGQGTQVTVSS,low polyreactivity
16,QVQLVESGGGLVQAGGSLRLSCAASGSIFERYAMGWYRQAPGKERELVAAISWSGGRTYYADSVKGRFTISRDYAKNTFFLQMNSLNPEDTAVYYCARVVQPGSPIYDYWGQGTQVTVSS,high polyreactivity
17,QVQLVESGGGLVQAGGSLRLSCAASGSIFERYDMGWYRQAPGKERELVAAITSAGITYYADSVKGRFTISRDNAKNTVYLQMNSLKPEDTAVYYCAASYYYGYDYWGQGTQVTVSS,low polyreactivity
18,QVQLVESGGGLVQAGGSLRLSCAASGSIFERYTMGWYRQAPGKERELVAAISRSGGRTYYADSVKGRFTISRDNAKNTVYLQMNSLKPEDTAVYYCARTRVASKGYDYWGQGTQVTVSS,high polyreactivity
19,QVQLVESGGGLVQAGGSLRLSCAASGSIFESYAMGWYRQAPGKERELVAAIDYSGGSTYYADSVKGRFTISRDNAKNSVYLQMNSLKREDTAVYYCAAGYRTYYGYRYGYWGQGTQVTVSS,high polyreactivity
20,QVQLVESGGGLVQAGGSLRLSCAASGSIFESYAMGWYRQAPGKERELVAAITKRGGSTYYADSVKGRFTISRDNAKNTVYLQMNSLKPEDTAVYYCNARWPGIGPIYDYWGQGTQVTVSS,low polyreactivity
21,QVQLVESGGGLVQAGGSLRLSCAASGSIFESYVMGWYRQAPGKERELVAAISSGGSTYYADSVKGRFTISRDNAKNTVYLQMNSLKPEDTAVYYCAKRSHTYSVPGVYNEGDYWGQGTQVTVSS,low polyreactivity
22,QVQLVESGGGLVQAGGSLRLSCAASGSIFEVNAMGLYRQAPGKERELVAAISCSGGSTYYADSVKGRFTISRDNAKNTVYLQMNSLKPEDTAVYYCAADWRQGLWYGYYYWGQGTQVTVSS,low polyreactivity
23,QVQLVESGGGLVQAGGSLRLSCAASGSIFEWYAMGWYRQAPGKDRELVADITYNGGSTYYADSVKGRFTISRDNAKNTVYLQMNSLKPEDTAVYYCAADYFVQVPDYYYASEYGYWGQGTQGTVSS,low polyreactivity
24,QVQLVESGGGLVQAGGSLRLSCAASGSIFEYNDMGSYRQAPGKERELVAAITTGGRTSYADSVKGRFTISRDNAKYTVYLQMNSLKPEDTAVYYCNKDHSSYGASGYDYWGQGTQVTVSS,low polyreactivity
25,QVQLVESGGGLVQAGGSLRLSCAASGSIFEYNDMGWYRQAPGKERELVAAISWNGGSTYYADSVKGRFTISRDNAKNTVYLPMNSLKPEETAVYYCNTRYSPGYQGTEVDYWGQGTQVTVSS,low polyreactivity
26,QVQLVESGGGLVQAGGSLRLSCAASGSIFFGNAMGWYRQAPGKERELVAAISTTGGSTYYADSVKGRFTISRDNAKNTVYLQMNSLKPEDTAVYYCNADRATWWEQWWYDYWGQGTLVTVSS,low polyreactivity
27,QVQLVESGGGLVQAGGSLRLSCAASGSIFFGNAMGWYRQATGKERELVAAITRRGGSTYYADSVKGRFTISRDNAKNTVYLQMNSLKPEDTAVYYCNAVSKRYGYGYWGQGTQVTVSS,high polyreactivity
28,QVQLVESGGGLVQAGGSLRLSCAASGSIFFGYAMGSYRQAPGKERELVAAISTRGGSTYYADSVKGRFTISRDNAKNTFYLQMNSLKPEDTAVYYSAADYLDSTYGYVYGWDDYWGQGTQVTVSS,low polyreactivity
29,QVQLVESGGGLVQAGGSLRLSCAASGSIFFGYAMGWYRQAPGKERELVAAISTRGGRTYYADSVKGRFTISRDNAKNTVYLQMNSLKPEDTAVYYCAAFQAHQTAFDYWGQGTQVTVSS,high polyreactivity
30,QVQLVESGGGLVQAGGSLRLSCAASGSIFFKYTMGWYRQAPGKEREFVAAISYSGGRTYYADSVKGRFTISRDNAKNTVYLQMNSLKPEDTSVYYCATRDEITHGDRMDYWGQGTQVTVSS,low polyreactivity
